Assays:
[1] = Protein eluted from raw skin (leather deliming application); conditions: 0.5% of protease
Protocol: A 20 g of raw skin finely cut into pieces of suitable size and 14 ml of distilled water was mixed in a 50 ml test tube. Then, 0.5% sodium bisulfite and 0.5% ammonium sulfate on the basis of the weight of skin was added thereto and the mixture was incubated for 15 minutes at 26° C. Subsequently, 0.2% of detergent and 0.5% of deliming agent was added thereto and waited for 30 minutes and 1 hour, respectively, before measuring the amount of protein eluted from the skin. In the presence of the 0.5% of protease, the protein eluted amounted to 1054 mg/ml and 1062 mg/ml after 30 minutes and 60 minutes, respectively. In the absence of the protease, the protein eluted amounted to 304.5 mg/ml and 329.5 mg/ml after 30 minute and 60 minutes, respectively.

azocasein [2] = assay: Effect of pH on the activity and stability of the protease; format: biochemical; conditions: for relative activity: 30 minutes
Protocol: (§1) Enzyme activity of the protease was measured according to the method described by Braun & Shmitz (Braun, V. & Schmitz, G., Arch. Microbiol. 124, 55-61, 1980). A substrate solution was prepared by dissolving 0.24 g of azocasein in 10 ml of 50 mM phosphate buffer (pH 7.5). The 300 □ of the substrate solution was mixed with 100 □ of bacterial culture solution and reacted at 37° C. for 30 minutes. Then, 300 □ of 10% trichloride acetate was added to the reaction solution and incubated at ambient temperature for 1 hour. The reaction solution was centrifuged at 7,000 rpm until pellet and supernatant was separated substantially. After adding 30 0 of 10% sodium hydroxide (NaOH) to the supernatant, the absorbance was measured at 420 nm. The enzymatic titer was defined as 1 unit by the 1.0 fold increment of absorbance value.
In order to examine the pH-dependence of the protease of the invention, the inventors prepared various substrate solution with different pH. The each substrate solution was buffered with citrate-phosphate(pH 3.0 to 7.0), sodium phosphate(pH 7.0 to 9.0), Tris-HCl(pH 7.0 to 10.0), and glysine-caustic soda(pH 9.0 to 12.0), respectively. The relative protease activity was measured after mixing enzyme with each of the above substrate solution at 37° C. for 30 minutes. The measurement of the relative protease activity was followed by the method described in Example 3(1).

azocasein [3] = assay: Effects of salts on the activity of the protease; format: biochemical; conditions: for relative activity: 37° C., 4 hours
Protocol: as §1
In order to examine effects of salts on the activity of protease, the relative enzyme activity was measured at 37° C. for 4 hours in the presence of various concentrations of sodium chloride solution ranging from 0 to 1700 mM. The relative activity was measured according to the method described in Example 3(1). For comparison, the protease derived from Serratia marcescens SM6 was used as a control.

azocasein [4] = assay: Effect of heat on the activity and stability of the protease; format: biochemical
Protocol: as §1
In order to examine the effect of heat on the activity and stability of the protease, the relative enzyme activity was measured at temperatures ranging from 4° C. to 80° C. The measurement of the activity was performed according to the method described in Example 3(1).

[5] = tested on: albumin, casein, collagen, elastin and hemoglobin; assay: Activity of the protease on various substrates; format: biochemical; conditions: all the other substrates including hemoglobin
Protocol: In order to examine the degrading ability of the enzyme against various substrates, the enzyme reactions were performed on substrates such as albumin, casein, collagen, elastin and hemoglobin. […] In 24 hour reaction, all the other substrates including hemoglobin achieved at least 45.

B1: protease: zinc-binding metalloprotease from Aranicola proteolyticus HY-3, amino acid sequence SEQ ID NO. 1, apparent molecular weight about 51.5 kDa (protein, listed as Aranicola proteolyticus)
chain: MQSTKKAIEITESSLAAASSAYNAVDDLLHYHERGNGIQVNGKDSFSTEQAGLFITRENQTWNGYKVFGQPVKLTFSFPDYKFSSTNVAGDTGLSKFSAEQQQQAKLSLQSWSDVANITFTEVGAGQKANITFGNYSQDRPGHYDYDTQAYAFLPNTIYQGQNLGGQTWYNVNQSNVKHPASEDYGRQTFTHEIGHALGLSHPGDYNAGEGNPTYRDASYAEDTREFSLMSYWSETNTGGDNGGHYAAAPLLDDISAIQHLYGANQTTRTGDTVYGFNSNTGRDFLSTTSNPQKVIFAAWDAGGNDTFDFSGYTANQRINLNEKSFSDVGGLKGNVSIAAGVTIENAIGGSGNDVIVGNAANNVLKGGAGNDVLFGGGGADELWGGAGKDTFVFSAVSDSAPGASDWIKDFQKGIDKIDLSFFNQGAQGGDQIHFVDHFSGAAGEALLSYNASNNVSDLALNIGGHQAPDILVKIVGQVDVATDFIV
modifications: BINDING (192) Zn binding site
notes: 1, apparent molecular weight about 51.5 kDa
[1]; after 30 minutes
  protein eluted from the skin: 1050 µg/mL
[1]; after 60 minutes
  protein eluted from the skin: 1060 µg/mL
Azocasein [2]; azocasein substrate
  pH of maximum activity: 8.0
Azocasein [2]; pH 3.0, 37° C.
  relative activity: 43%
Azocasein [2]; pH 4.0, 37° C.
  relative activity: 66%
Azocasein [2]; pH 5.0, 37° C.
  relative activity: 73%
Azocasein [2]; pH 5.5, 37° C.
  relative activity: 77%
Azocasein [2]; pH 6.0, 37° C.
  relative activity: 79%
Azocasein [2]; pH 7.0, 37° C.
  relative activity: 81%
Azocasein [2]; pH 7.5, 37° C.
  relative activity: 83%
Azocasein [2]; pH 8.0, 37° C.
  relative activity: 100%
Azocasein [2]; pH 8.5, 37° C.
  relative activity: 99%
Azocasein [2]; pH 9.0, 37° C.
  relative activity: 90%
Azocasein [2]; pH 9.5, 37° C.
  relative activity: 80%
Azocasein [2]; pH 10.0, 37° C.
  relative activity: 78%
Azocasein [2]; pH 11.0, 37° C.
  relative activity: 76%
Azocasein [2]; pH 12.0, 37° C.
  relative activity: 71%
Azocasein [2]; pH of 5.0 to 12.0
  activity relative to maximum activity: at least 70%
Azocasein [3]; high salt concentrations
  activity under high salt concentrations: retains high activity
Azocasein [3]; salt concentration 0 mM NaCl
  relative activity: 100%
Azocasein [3]; salt concentration 170 mM NaCl
  relative activity: 134%
Azocasein [3]; salt concentration 340 mM NaCl
  relative activity: 173%
Azocasein [3]; salt concentration 510 mM NaCl
  relative activity: 200%
Azocasein [3]; salt concentration 680 mM NaCl
  relative activity: 215%
Azocasein [3]; salt concentration 1020 mM NaCl
  relative activity: 203%
Azocasein [3]; salt concentration 1360 mM NaCl
  relative activity: 196%
Azocasein [3]; salt concentration 1700 mM NaCl
  relative activity: 155%
Azocasein [4]; 4° C. to 15° C., relative to maximum activity
  activity maintained at low temperature: about a half of the maximum activity
Azocasein [4]; measured from 4° C. to 80° C.
  temperature of maximum activity: 37 °C
Azocasein [4]; temperature 4 ° C.
  relative activity: 43%
Azocasein [4]; temperature 10 ° C.
  relative activity: 45%
Azocasein [4]; temperature 15 ° C.
  relative activity: 50%
Azocasein [4]; temperature 20 ° C.
  relative activity: 76%
Azocasein [4]; temperature 25 ° C.
  relative activity: 81%
Azocasein [4]; temperature 30 ° C.
  relative activity: 93%
Azocasein [4]; temperature 37 ° C.
  relative activity: 100%
Azocasein [4]; temperature 45 ° C.
  relative activity: 28%
Azocasein [4]; temperature 50 ° C.
  relative activity: 22%
Azocasein [4]; temperature 60 ° C.
  relative activity: 20%
Azocasein [4]; temperature 70 ° C.
  relative activity: 14%
Azocasein [4]; temperature 80 ° C.
  relative activity: 3%
Azocasein [4]; temperatures between 4° C. and 37° C.
  Ea value (hydrolysis of azocasein), activation energy in Arrenius plot: 2.43 kcal/mol
Azocasein [4]; temperatures between 20° C. to 40° C.
  relative activity: at least 75%
[5]
  degrading ability (albumin in 24 hour reaction defined as 100): at least 45

From patent US7297332B2, “Protease, a gene therefor and the use thereof” (Korean Research Institute of Bioscience and Biotechnology, priority 2000, dated 2007)
